Publication PMC3282181
Like-named read-outs stand apart in the source and are kept apart here.

T1: wtTIA-RRM123 (Homo sapiens, UniProt P31483-2 1-274)
T1 sequence: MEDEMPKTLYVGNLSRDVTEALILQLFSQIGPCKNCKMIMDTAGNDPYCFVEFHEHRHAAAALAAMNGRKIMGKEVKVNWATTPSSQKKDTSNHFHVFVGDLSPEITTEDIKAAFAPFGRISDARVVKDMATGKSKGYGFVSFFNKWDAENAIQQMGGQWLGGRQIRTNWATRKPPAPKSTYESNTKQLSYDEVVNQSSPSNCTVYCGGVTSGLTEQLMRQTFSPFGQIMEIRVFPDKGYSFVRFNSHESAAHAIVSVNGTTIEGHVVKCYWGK

T2: TIA-Mut3 (Homo sapiens, UniProt P31483-2 1-274, Y206A;F242A)
T2 sequence: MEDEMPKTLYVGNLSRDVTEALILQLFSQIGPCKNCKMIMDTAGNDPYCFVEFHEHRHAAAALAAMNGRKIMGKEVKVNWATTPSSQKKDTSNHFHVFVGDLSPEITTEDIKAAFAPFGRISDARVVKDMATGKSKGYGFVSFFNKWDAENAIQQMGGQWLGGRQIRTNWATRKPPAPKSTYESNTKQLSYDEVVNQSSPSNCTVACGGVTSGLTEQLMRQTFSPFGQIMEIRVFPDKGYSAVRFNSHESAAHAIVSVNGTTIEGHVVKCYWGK


Legend:
wtTIA-RRM123 [1] = target: T1, wtTIA-RRM123; assay: EMSA
wtTIA-RRM123 [2] = target: T1, wtTIA-RRM123; assay: ITC
wtTIA-RRM123 [3] = target: T1, wtTIA-RRM123; assay: ITC; remark: listed apart in the source
TIA-Mut3 [4] = target: T2, TIA-Mut3; assay: ITC
wtTIA-RRM123 [5] = target: T1, wtTIA-RRM123; assay: ITC; remark: listed apart in the source
TIA-Mut3 [6] = target: T2, TIA-Mut3; assay: ITC; remark: listed apart in the source

Row | Binder | binding result (wtTIA-RRM123 [1]) | Kd (wtTIA-RRM123 [2]) [nM] | Kd (wtTIA-RRM123 [3]) [nM] | Kd (TIA-Mut3 [4]) [nM] | Kd (wtTIA-RRM123 [5]) [nM] | Kd (TIA-Mut3 [6]) [nM]
1 | UUAUUUAUUUA (ssRNA) [tnf-a ARE RNA (11 nt)] | binds | – | – | – | – | –
2 | UUUUUUUUUUUUUUUUUUUU (ssRNA) [U20 RNA] | – | 0.5 ± 0.1 | 240 ± 10 | 1270 ± 60 | 620 ± 70 | 14.4 ± 6.1
